These results are taken from patent publication US20180155451A1 (published 2018).

Numbering of substitutions follows the chain as printed.

For test [1], the target named is T1, FcγRIIa R (extracellular domain with a His tag at the C terminus) (human, UniProt P12318 34-217).
T1 construct: extracellular domain; expressed in FreeStyle293 cells; also called FcgRIIa R; FcγRIIa type R; not shown: His tag at the C terminus
T1 sequence (looked up): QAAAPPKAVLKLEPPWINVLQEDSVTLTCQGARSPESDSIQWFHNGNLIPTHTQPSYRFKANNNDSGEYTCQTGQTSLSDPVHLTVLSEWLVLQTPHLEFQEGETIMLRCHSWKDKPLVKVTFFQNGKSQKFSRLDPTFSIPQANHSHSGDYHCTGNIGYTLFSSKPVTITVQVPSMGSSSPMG
Briefly: SPR Biacore, relative binding.

The target of test [2] is T2, FcγRIIa H (human, UniProt P12318 34-217).
T2 construct: extracellular domain; also called FcgRIIa H type; 2aH; not shown: His tag at the C terminus
T2 sequence (looked up): T1 sequence (looked up) with R134H
Briefly: SPR Biacore, relative binding. In general terms: SPR reads the build-up and loss of mass on a sensor chip optically.

B1: GpH7-B3 variant S337_02A/GpL16-k0 (antibody, human IgG1, kappa)
heavy: not shown
light: DIVMTQSPLSLPVTPGEPASISCQASESLVHSNRNTYLHWYLQKPGQSPQLLIYKVSNRFSGVPDRFSGSGSGTDFTLKISRVEAEDVGVYYCSQNTHVPPTFGQGTKVEIERTVAAPSVFIFPPSDEQLKSGTASVVCLLNNFYPREAKVQWKVDNALQSGNSQESVTEQDSKDSTYSLSSTLTLSKADYEKHKVYACEVTHQGLSSPVTKSFNRGEC
notes: homodimerized; mutation in both H chains; also called Ho Ab
Consider B1, for which the Ho/Con_2aR in test [1] is 102 % of GpH7-B3/GpL16-k0 (=100).

B2: GpH7-B3 variant G237_20W/GpL16-k0 (antibody, human IgG1, kappa)
heavy: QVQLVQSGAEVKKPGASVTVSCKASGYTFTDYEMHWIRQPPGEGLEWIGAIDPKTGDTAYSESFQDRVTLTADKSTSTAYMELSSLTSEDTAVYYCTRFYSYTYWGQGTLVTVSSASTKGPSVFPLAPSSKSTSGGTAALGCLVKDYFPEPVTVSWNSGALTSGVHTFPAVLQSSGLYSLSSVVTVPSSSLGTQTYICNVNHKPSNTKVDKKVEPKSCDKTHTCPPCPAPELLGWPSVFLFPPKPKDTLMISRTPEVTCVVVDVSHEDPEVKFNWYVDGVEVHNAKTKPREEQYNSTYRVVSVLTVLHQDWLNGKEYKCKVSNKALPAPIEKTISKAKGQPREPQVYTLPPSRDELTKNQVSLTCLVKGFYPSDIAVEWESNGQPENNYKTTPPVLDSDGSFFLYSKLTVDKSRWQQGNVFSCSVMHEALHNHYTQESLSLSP
light: B1 light
notes: as for B1
Regarding B2, the Ho/Con_2aR in test [1] is 107 % of GpH7-B3/GpL16-k0 (=100).

B3: GpH7-B3 variant K334_10E/GpL16-k0 (antibody, human IgG1, kappa)
heavy: not shown
light: B1 light
notes: as for B1
Regarding B3, the Ho/Con_2aR in test [1] is 106 % of GpH7-B3/GpL16-k0 (=100).

B4: GpH7-B3 variant A330_01G/GpL16-k0 (antibody, human IgG1, kappa)
heavy: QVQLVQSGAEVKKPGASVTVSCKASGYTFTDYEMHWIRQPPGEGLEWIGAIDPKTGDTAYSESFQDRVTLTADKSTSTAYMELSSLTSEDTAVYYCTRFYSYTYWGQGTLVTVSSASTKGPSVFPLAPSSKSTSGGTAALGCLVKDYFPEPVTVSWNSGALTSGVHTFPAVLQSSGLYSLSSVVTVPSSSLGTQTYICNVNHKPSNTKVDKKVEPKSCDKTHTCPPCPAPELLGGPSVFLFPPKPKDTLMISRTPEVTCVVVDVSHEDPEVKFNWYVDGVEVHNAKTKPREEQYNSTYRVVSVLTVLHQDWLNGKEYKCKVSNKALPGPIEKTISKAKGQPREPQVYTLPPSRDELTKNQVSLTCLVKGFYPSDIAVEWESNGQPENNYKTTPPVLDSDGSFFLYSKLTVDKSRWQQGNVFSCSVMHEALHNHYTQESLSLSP
light: B1 light
notes: as for B1
For B4, the Ho/Con_2aR in test [1] is 106 % of GpH7-B3/GpL16-k0 (=100).

B5: GpH7-A5/GpH7-B3 variant S239_09D/GpL16-k0 (antibody, human IgG1, kappa)
heavy 1: not shown
heavy 2: not shown
light: B1 light
notes: also called He Ab S239_09D
Regarding B5, the He/Con_2aH in test [2] was 114 % of GpH7-A5/GpH7-B3/GpL16-k0 (=100).

B6: GpH7-A5/GpH7-B3 variant T335_10E/GpL16-k0 (antibody, human IgG1, kappa)
heavy 1: not shown
heavy 2: not shown
light: B1 light
notes: also called He Ab T335_10E
For the molecule B6, the He/Con_2aH in test [2] was 108 % of GpH7-A5/GpH7-B3/GpL16-k0 (=100).

B7: GpH7-A5/GpH7-B3 variant S324_10E/GpL16-k0 (antibody, human IgG1, kappa)
heavy 1: not shown
heavy 2: not shown
light: B1 light
notes: also called He Ab S324_10E
On to B7, for which, in test [2], the He/Con_2aH is 103 % of GpH7-A5/GpH7-B3/GpL16-k0 (=100).

B8: GpH7-B3 variant K334_04F/GpL16-k0 (antibody, human IgG1, kappa)
heavy: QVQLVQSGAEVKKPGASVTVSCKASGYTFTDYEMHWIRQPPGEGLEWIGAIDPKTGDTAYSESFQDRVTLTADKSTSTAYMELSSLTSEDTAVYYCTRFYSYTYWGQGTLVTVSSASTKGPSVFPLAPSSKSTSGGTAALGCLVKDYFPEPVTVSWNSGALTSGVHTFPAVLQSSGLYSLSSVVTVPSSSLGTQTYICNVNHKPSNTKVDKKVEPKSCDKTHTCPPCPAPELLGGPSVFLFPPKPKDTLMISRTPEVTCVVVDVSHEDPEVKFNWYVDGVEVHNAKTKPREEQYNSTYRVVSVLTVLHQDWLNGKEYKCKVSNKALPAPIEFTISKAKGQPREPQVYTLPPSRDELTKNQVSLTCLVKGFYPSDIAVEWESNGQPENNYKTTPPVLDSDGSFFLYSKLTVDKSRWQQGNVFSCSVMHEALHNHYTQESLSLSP
light: B1 light
notes: as for B1
Take B8: in test [1], the Ho/Con_2aR is 110 % of GpH7-B3/GpL16-k0 (=100).

B9: GpH7-A5/GpH7-B3 variant Q295_07I/GpL16-k0 (antibody, human IgG1, kappa)
heavy 1: not shown
heavy 2: not shown
light: B1 light
notes: also called He Ab Q295_07I
Turning to B9, the He/Con_2aH in test [2] was 102 % of GpH7-A5/GpH7-B3/GpL16-k0 (=100).

B10: GpH7-B3 variant K334_02A/GpL16-k0 (antibody, human IgG1, kappa)
heavy: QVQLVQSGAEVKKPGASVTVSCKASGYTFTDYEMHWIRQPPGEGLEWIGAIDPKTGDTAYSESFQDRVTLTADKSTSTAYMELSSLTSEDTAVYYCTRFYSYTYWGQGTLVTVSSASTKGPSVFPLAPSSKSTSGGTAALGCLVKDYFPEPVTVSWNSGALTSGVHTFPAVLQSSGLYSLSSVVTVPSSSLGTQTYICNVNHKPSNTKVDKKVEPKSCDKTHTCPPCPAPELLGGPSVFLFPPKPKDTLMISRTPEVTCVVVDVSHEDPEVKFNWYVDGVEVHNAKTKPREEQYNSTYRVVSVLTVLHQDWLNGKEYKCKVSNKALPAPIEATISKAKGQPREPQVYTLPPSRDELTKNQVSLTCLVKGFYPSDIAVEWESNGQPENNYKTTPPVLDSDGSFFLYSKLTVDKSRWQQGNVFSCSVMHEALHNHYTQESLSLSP
light: B1 light
notes: as for B1
For the molecule B10, the Ho/Con_2aR in test [1] is 100 % of GpH7-B3/GpL16-k0 (=100).

B11: GpH7-A5/GpH7-B3 variant T335_13S/GpL16-k0 (antibody, human IgG1, kappa)
heavy 1: not shown
heavy 2: not shown
light: B1 light
notes: also called He Ab T335_13S
As to B11, in test [2], the He/Con_2aH was 106 % of GpH7-A5/GpH7-B3/GpL16-k0 (=100).

B12: GpH7-B3 variant K334_05P/GpL16-k0 (antibody, human IgG1, kappa)
heavy: not shown
light: B1 light
notes: as for B1
With B12, the Ho/Con_2aR in test [1] was 102 % of GpH7-B3/GpL16-k0 (=100).

B13: GpH7-B3 variant K326_08L/GpL16-k0 (antibody, human IgG1, kappa)
heavy: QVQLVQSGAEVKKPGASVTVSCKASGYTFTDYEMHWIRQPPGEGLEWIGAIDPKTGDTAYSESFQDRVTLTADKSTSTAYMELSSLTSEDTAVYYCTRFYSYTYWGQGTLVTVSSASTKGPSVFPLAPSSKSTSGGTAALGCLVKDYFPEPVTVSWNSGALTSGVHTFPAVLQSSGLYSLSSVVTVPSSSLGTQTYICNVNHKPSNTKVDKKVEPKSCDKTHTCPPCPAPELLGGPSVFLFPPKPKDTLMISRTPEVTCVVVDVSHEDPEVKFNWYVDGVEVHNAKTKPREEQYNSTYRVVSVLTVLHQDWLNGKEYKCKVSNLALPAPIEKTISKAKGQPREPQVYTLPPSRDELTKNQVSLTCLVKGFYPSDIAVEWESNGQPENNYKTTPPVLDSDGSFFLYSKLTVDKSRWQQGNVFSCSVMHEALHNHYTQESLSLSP
light: B1 light
notes: as for B1
For B13, in test [1], the Ho/Con_2aR was 131 % of GpH7-B3/GpL16-k0 (=100).

B14: GpH7-A5/GpH7-B3 variant L328_13S/GpL16-k0 (antibody, human IgG1, kappa)
heavy 1: not shown
heavy 2: not shown
light: B1 light
notes: also called He Ab L328_13S
Take B14: in test [2], the He/Con_2aH is 123 % of GpH7-A5/GpH7-B3/GpL16-k0 (=100).

B15: GpH7-B3 variant K326_07I/GpL16-k0 (antibody, human IgG1, kappa)
heavy: not shown
light: B1 light
notes: as for B1
Take B15: the Ho/Con_2aR in test [1] was 133 % of GpH7-B3/GpL16-k0 (=100).

B16: GpH7-A5/GpH7-B3 variant S337_16H/GpL16-k0 (antibody, human IgG1, kappa)
heavy 1: not shown
heavy 2: not shown
light: B1 light
notes: also called He Ab S337_16H
Regarding B16, in test [2], the He/Con_2aH is 101 % of GpH7-A5/GpH7-B3/GpL16-k0 (=100).

B17: GpH7-B3 variant A330_12R/GpL16-k0 (antibody, human IgG1, kappa)
heavy: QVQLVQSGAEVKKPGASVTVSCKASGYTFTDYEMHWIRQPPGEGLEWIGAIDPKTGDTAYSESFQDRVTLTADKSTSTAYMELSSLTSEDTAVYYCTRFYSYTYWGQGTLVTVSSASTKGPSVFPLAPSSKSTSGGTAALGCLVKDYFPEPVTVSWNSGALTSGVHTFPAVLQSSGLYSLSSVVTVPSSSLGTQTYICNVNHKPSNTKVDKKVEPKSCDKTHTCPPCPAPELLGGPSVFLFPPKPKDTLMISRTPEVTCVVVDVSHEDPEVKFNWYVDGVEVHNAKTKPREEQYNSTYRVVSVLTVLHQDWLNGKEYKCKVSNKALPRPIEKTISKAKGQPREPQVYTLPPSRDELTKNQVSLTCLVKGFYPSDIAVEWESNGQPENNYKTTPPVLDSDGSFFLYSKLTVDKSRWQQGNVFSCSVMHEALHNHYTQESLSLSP
light: B1 light
notes: as for B1
Take B17: the Ho/Con_2aR in test [1] was 101 % of GpH7-B3/GpL16-k0 (=100).

B18: GpH7-B3 variant I336_08L/GpL16-k0 (antibody, human IgG1, kappa)
heavy: not shown
light: B1 light
notes: as for B1
For the molecule B18, the Ho/Con_2aR in test [1] was 105 % of GpH7-B3/GpL16-k0 (=100).

B19: GpH7-A5/GpH7-B3 variant S337_09D/GpL16-k0 (antibody, human IgG1, kappa)
heavy 1: not shown
heavy 2: not shown
light: B1 light
notes: also called He Ab S337_09D
In the case of B19, in test [2], the He/Con_2aH is 107 % of GpH7-A5/GpH7-B3/GpL16-k0 (=100).

B20: GpH7-B3 variant A327_10E/GpL16-k0 (antibody, human IgG1, kappa)
heavy: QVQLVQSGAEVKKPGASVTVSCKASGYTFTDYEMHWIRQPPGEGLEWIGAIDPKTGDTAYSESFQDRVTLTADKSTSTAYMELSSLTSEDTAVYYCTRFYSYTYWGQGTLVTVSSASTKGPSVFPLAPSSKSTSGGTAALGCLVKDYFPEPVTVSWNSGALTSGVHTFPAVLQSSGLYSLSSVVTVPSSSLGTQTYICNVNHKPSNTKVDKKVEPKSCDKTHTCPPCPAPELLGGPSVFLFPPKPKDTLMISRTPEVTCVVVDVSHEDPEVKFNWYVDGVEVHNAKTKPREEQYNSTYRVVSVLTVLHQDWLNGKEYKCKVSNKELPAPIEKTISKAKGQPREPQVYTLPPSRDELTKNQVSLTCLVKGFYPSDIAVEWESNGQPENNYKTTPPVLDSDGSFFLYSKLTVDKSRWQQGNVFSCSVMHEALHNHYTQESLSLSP
light: B1 light
notes: as for B1
For the molecule B20, the Ho/Con_2aR in test [1] is 104 % of GpH7-B3/GpL16-k0 (=100).

B21: GpH7-B3 variant K326_04F/GpL16-k0 (antibody, human IgG1, kappa)
heavy: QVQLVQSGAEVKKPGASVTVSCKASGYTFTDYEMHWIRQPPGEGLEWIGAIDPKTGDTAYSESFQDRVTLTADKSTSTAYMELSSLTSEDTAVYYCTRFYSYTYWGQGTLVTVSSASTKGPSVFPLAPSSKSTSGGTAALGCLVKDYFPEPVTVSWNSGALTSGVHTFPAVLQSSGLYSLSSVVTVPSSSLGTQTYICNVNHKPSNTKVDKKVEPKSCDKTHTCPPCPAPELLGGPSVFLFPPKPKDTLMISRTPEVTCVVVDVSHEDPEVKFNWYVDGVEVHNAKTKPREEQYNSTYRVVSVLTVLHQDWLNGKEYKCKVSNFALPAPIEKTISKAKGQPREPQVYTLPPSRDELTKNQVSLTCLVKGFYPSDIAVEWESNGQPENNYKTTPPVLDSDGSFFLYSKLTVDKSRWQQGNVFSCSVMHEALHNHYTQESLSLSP
light: B1 light
notes: as for B1
With B21, the Ho/Con_2aR in test [1] was 133 % of GpH7-B3/GpL16-k0 (=100).

B22: GpH7-B3 variant K326_03V/GpL16-k0 (antibody, human IgG1, kappa)
heavy: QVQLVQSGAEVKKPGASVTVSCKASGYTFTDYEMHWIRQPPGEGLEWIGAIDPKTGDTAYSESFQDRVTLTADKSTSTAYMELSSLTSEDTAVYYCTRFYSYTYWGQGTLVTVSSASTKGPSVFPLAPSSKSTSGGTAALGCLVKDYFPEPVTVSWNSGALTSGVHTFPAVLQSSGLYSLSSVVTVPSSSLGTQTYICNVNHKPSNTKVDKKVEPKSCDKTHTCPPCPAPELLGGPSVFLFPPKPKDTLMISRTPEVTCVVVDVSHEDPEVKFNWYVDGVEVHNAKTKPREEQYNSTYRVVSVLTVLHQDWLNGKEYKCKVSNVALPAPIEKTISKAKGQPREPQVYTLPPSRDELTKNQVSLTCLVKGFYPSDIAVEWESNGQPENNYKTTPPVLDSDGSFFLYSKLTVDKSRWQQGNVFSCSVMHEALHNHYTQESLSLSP
light: B1 light
notes: as for B1
For the molecule B22, in test [1], the Ho/Con_2aR is 139 % of GpH7-B3/GpL16-k0 (=100).

B23: GpH7-B3 variant A327_09D/GpL16-k0 (antibody, human IgG1, kappa)
heavy: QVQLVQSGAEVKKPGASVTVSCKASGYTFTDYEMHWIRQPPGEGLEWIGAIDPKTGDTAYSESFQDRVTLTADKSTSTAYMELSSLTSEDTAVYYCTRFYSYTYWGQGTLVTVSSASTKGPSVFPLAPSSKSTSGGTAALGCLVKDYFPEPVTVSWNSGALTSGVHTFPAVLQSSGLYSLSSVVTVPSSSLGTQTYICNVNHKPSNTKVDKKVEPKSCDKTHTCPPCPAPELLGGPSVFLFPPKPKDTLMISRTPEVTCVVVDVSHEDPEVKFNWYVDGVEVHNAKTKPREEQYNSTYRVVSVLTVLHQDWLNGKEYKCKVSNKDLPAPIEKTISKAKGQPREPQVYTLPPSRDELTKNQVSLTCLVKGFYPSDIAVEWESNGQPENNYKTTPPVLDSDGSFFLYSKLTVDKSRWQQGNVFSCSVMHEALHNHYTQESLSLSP
light: B1 light
notes: as for B1
Consider B23, for which the Ho/Con_2aR in test [1] was 120 % of GpH7-B3/GpL16-k0 (=100).

B24: GpH7-B3 variant H268_01G/GpL16-k0 (antibody, human IgG1, kappa)
heavy: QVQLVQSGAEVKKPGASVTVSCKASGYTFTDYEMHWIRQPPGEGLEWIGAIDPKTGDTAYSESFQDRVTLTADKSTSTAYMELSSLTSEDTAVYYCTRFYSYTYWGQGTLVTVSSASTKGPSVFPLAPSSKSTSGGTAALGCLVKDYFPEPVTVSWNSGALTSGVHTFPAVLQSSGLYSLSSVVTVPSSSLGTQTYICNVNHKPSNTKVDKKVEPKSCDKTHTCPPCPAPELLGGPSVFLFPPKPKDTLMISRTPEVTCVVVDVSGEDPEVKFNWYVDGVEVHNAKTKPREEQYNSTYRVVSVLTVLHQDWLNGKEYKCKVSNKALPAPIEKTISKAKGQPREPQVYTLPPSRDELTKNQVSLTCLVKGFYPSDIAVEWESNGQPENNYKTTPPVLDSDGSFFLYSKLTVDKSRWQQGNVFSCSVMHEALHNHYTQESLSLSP
light: B1 light
notes: as for B1
As for B24, in test [1], the Ho/Con_2aR was 122 % of GpH7-B3/GpL16-k0 (=100).

B25: GpH7-B3 variant K334_13S/GpL16-k0 (antibody, human IgG1, kappa)
heavy: not shown
light: B1 light
notes: as for B1
Regarding B25, the Ho/Con_2aR in test [1] is 106 % of GpH7-B3/GpL16-k0 (=100).

B26: GpH7-B3 variant K334_08L/GpL16-k0 (antibody, human IgG1, kappa)
heavy: not shown
light: B1 light
notes: as for B1
As for B26, in test [1], the Ho/Con_2aR is 105 % of GpH7-B3/GpL16-k0 (=100).
